{
  "source": "the RNAGym collection of RNA variant scans (doi:10.7554/elife.80360)",
  "parents": {"B1": {"name": "Hairpin Ribozyme (parent)", "chain": "GUCCUCUUUCACGUGCGCGUGAAAGAGAGAAGUGAACCAGAGAAACACACGUUGUGGUAUAUUACCUGGUA"}},
  "data": [
    {"variants_of": "B1", "experiment": "self-cleavage, relative activity (ratio to wild type); higher = more cleavage; co-transcriptional", "values": [
      {"variant": "U8A C50U", "self-cleavage": 0.311},
      {"variant": "U8A C50A", "self-cleavage": 0.158},
      {"variant": "U8A A71U", "self-cleavage": 0.631},
      {"variant": "U8A A59C", "self-cleavage": 0.165},
      {"variant": "U8A G21C", "self-cleavage": 0.504},
      {"variant": "U8C A61U", "self-cleavage": 0.182},
      {"variant": "U8C A61C", "self-cleavage": 0.0941},
      {"variant": "U7G G15C", "self-cleavage": 0.836},
      {"variant": "U8A C10A", "self-cleavage": 0.458},
      {"variant": "U8A C65G", "self-cleavage": 0.104},
      {"variant": "U8A C65U", "self-cleavage": 0.258},
      {"variant": "U8A C65A", "self-cleavage": 0.63},
      {"variant": "U8C G19A", "self-cleavage": 0.302},
      {"variant": "U8C A49U", "self-cleavage": 0.244},
      {"variant": "U8C A49G", "self-cleavage": 0.347},
      {"variant": "U7G G27A", "self-cleavage": 0.369},
      {"variant": "U8A U9C", "self-cleavage": 0.377},
      {"variant": "U8A G15C", "self-cleavage": 0.954},
      {"variant": "U8A G32A", "self-cleavage": 0.141},
      {"variant": "U8A G32U", "self-cleavage": 0.166},
      {"variant": "U7G A36U", "self-cleavage": 0.507},
      {"variant": "U7G A36G", "self-cleavage": 0.828},
      {"variant": "U8C C50A", "self-cleavage": 0.144},
      {"variant": "U8C C50G", "self-cleavage": 0.119},
      {"variant": "U8C A59C", "self-cleavage": 0.183},
      {"variant": "U8C A59G", "self-cleavage": 0.203},
      {"variant": "U7G G56C", "self-cleavage": 0.0943},
      {"variant": "U7G G56A", "self-cleavage": 0.151},
      {"variant": "U8C A45G", "self-cleavage": 0.149},
      {"variant": "U7G G21A", "self-cleavage": 0.499},
      {"variant": "U7G G21U", "self-cleavage": 0.453},
      {"variant": "U8A A39C", "self-cleavage": 0.396},
      {"variant": "U8A C16U", "self-cleavage": 0.788},
      {"variant": "U7G A39C", "self-cleavage": 0.48},
      {"variant": "U8A G54C", "self-cleavage": 0.284},
      {"variant": "U8A G27A", "self-cleavage": 0.236},
      {"variant": "U8C C66G", "self-cleavage": 0.0616},
      {"variant": "U8C G29A", "self-cleavage": 0.112},
      {"variant": "U8C G29U", "self-cleavage": 0.081},
      {"variant": "U8C A30G", "self-cleavage": 0.144},
      {"variant": "U8C A30U", "self-cleavage": 0.0797},
      {"variant": "U8A A26G", "self-cleavage": 0.606},
      {"variant": "U7G G57A", "self-cleavage": 0.149},
      {"variant": "U7G C50U", "self-cleavage": 0.371},
      {"variant": "U7G C50A", "self-cleavage": 0.167},
      {"variant": "U7G U58C", "self-cleavage": 0.813},
      {"variant": "U7G U8A", "self-cleavage": 0.942},
      {"variant": "U7G U8C", "self-cleavage": 0.656},
      {"variant": "U8A A35G", "self-cleavage": 0.483},
      {"variant": "U8A A35U", "self-cleavage": 0.459},
      {"variant": "U8C C10G", "self-cleavage": 0.114},
      {"variant": "U8C C38G", "self-cleavage": 0.154},
      {"variant": "U8C C38U", "self-cleavage": 0.245},
      {"variant": "U8C G17U", "self-cleavage": 0.554},
      {"variant": "U8C G17C", "self-cleavage": 0.404},
      {"variant": "U8A A30U", "self-cleavage": 0.0488},
      {"variant": "U8A G13A", "self-cleavage": 0.637},
      {"variant": "U8A G13C", "self-cleavage": 0.687},
      {"variant": "U8A G13U", "self-cleavage": 0.551},
      {"variant": "U7G G68C", "self-cleavage": 0.224},
      {"variant": "U7G G68A", "self-cleavage": 0.3},
      {"variant": "U8A U63A", "self-cleavage": 0.111},
      {"variant": "U8C G32C", "self-cleavage": 0.0916},
      {"variant": "U7G C46G", "self-cleavage": 0.134},
      {"variant": "U8A A61G", "self-cleavage": 0.0847},
      {"variant": "U8A G68U", "self-cleavage": 0.172},
      {"variant": "U7G C18A", "self-cleavage": 1.01},
      {"variant": "U8C A41U", "self-cleavage": 1.12},
      {"variant": "U7G C37A", "self-cleavage": 0.335},
      {"variant": "U7G A35U", "self-cleavage": 0.921},
      {"variant": "U7G A35G", "self-cleavage": 0.916},
      {"variant": "U8A A44U", "self-cleavage": 0.0969},
      {"variant": "U7G G32C", "self-cleavage": 0.161},
      {"variant": "U8A G51C", "self-cleavage": 0.602},
      {"variant": "U8A A36C", "self-cleavage": 0.412},
      {"variant": "U7G A26G", "self-cleavage": 0.821},
      {"variant": "U7G A61C", "self-cleavage": 0.261},
      {"variant": "U8C G42A", "self-cleavage": 0.177},
      {"variant": "U7G G19C", "self-cleavage": 0.592},
      {"variant": "U8A U60G", "self-cleavage": 0.439},
      {"variant": "U8A U60A", "self-cleavage": 0.755},
      {"variant": "U8A C46G", "self-cleavage": 0.0541},
      {"variant": "U7G U62G", "self-cleavage": 0.223},
      {"variant": "U8A A45U", "self-cleavage": 0.198},
      {"variant": "U8A A45C", "self-cleavage": 0.158},
      {"variant": "U8A A45G", "self-cleavage": 0.193},
      {"variant": "U8A A22C", "self-cleavage": 0.594},
      {"variant": "U8A G19C", "self-cleavage": 0.553},
      {"variant": "U8A G19A", "self-cleavage": 0.558},
      {"variant": "U8C C65A", "self-cleavage": 0.788},
      {"variant": "U8C A47U", "self-cleavage": 0.224},
      {"variant": "U8A U67G", "self-cleavage": 0.237},
      {"variant": "U7G U53G", "self-cleavage": 0.641},
      {"variant": "U7G U53A", "self-cleavage": 0.967},
      {"variant": "U8A G34A", "self-cleavage": 0.98},
      {"variant": "U7G G54C", "self-cleavage": 0.41},
      {"variant": "U8A U62C", "self-cleavage": 0.183},
      {"variant": "U7G U55A", "self-cleavage": 0.225},
      {"variant": "U7G U55C", "self-cleavage": 0.152},
      {"variant": "U8A A28C", "self-cleavage": 0.385},
      {"variant": "U8A A28U", "self-cleavage": 0.613},
      {"variant": "U8A G42A", "self-cleavage": 0.129},
      {"variant": "U8A U14C", "self-cleavage": 0.845},
      {"variant": "U8A G25U", "self-cleavage": 0.114},
      {"variant": "U8A G25A", "self-cleavage": 0.432},
      {"variant": "U8A G40C", "self-cleavage": 0.156},
      {"variant": "U7G A30C", "self-cleavage": 0.0485},
      {"variant": "U7G U20G", "self-cleavage": 0.453},
      {"variant": "U8C G40U", "self-cleavage": 0.164},
      {"variant": "U8A U20A", "self-cleavage": 0.479},
      {"variant": "U8A U20C", "self-cleavage": 0.928},
      {"variant": "U8A C18U", "self-cleavage": 0.779},
      {"variant": "U8A C18G", "self-cleavage": 0.524},
      {"variant": "U8C C37U", "self-cleavage": 0.347},
      {"variant": "U7G U60A", "self-cleavage": 0.795},
      {"variant": "U8A A31C", "self-cleavage": 0.0591},
      {"variant": "U7G G13U", "self-cleavage": 0.632},
      {"variant": "U8C G25U", "self-cleavage": 0.32},
      {"variant": "U7G A43G", "self-cleavage": 0.023},
      {"variant": "U7G A43U", "self-cleavage": 0.123},
      {"variant": "U8A A43C", "self-cleavage": 0.153},
      {"variant": "U7G G40U", "self-cleavage": 0.214},
      {"variant": "U8C A44C", "self-cleavage": 0.131},
      {"variant": "U8C A44U", "self-cleavage": 0.142},
      {"variant": "U8C A44G", "self-cleavage": 0.0935},
      {"variant": "U7G U33G", "self-cleavage": 0.194},
      {"variant": "U8A G69A", "self-cleavage": 0.375},
      {"variant": "U8A G69U", "self-cleavage": 0.213},
      {"variant": "U8A G69C", "self-cleavage": 0.191},
      {"variant": "U7G A44C", "self-cleavage": 0.195},
      {"variant": "U8C G34A", "self-cleavage": 1.18},
      {"variant": "U8A G17C", "self-cleavage": 0.63},
      {"variant": "U7G C38U", "self-cleavage": 0.377},
      {"variant": "U8A A23U", "self-cleavage": 0.911},
      {"variant": "U7G U70A", "self-cleavage": 0.673},
      {"variant": "U7G U67G", "self-cleavage": 0.283},
      {"variant": "U8A C37U", "self-cleavage": 0.56},
      {"variant": "U8A C37A", "self-cleavage": 0.288},
      {"variant": "U8A C37G", "self-cleavage": 0.241},
      {"variant": "U8C A64G", "self-cleavage": 0.443},
      {"variant": "U8C A64U", "self-cleavage": 0.104},
      {"variant": "U8C A23U", "self-cleavage": 0.841},
      {"variant": "U8C A23C", "self-cleavage": 0.68},
      {"variant": "U8C A43C", "self-cleavage": 0.126},
      {"variant": "U7G A49G", "self-cleavage": 0.421},
      {"variant": "U8A G56C", "self-cleavage": 0.196},
      {"variant": "U8A G56U", "self-cleavage": 0.134},
      {"variant": "U8A C12U", "self-cleavage": 0.747},
      {"variant": "U8C C46A", "self-cleavage": 0.102},
      {"variant": "U8C A71G", "self-cleavage": 0.974},
      {"variant": "U7G A59U", "self-cleavage": 0.116},
      {"variant": "U7G A59G", "self-cleavage": 0.0757},
      {"variant": "U8C G56U", "self-cleavage": 0.167},
      {"variant": "U8A C38U", "self-cleavage": 0.357},
      {"variant": "U8C A11U", "self-cleavage": 0.252},
      {"variant": "U7G C48A", "self-cleavage": 0.142},
      {"variant": "U8C G13A", "self-cleavage": 0.722},
      {"variant": "U8C G13U", "self-cleavage": 0.529},
      {"variant": "U8A A24C", "self-cleavage": 0.626},
      {"variant": "U8A A24U", "self-cleavage": 0.571},
      {"variant": "U8C G21A", "self-cleavage": 0.264},
      {"variant": "U8C G21C", "self-cleavage": 0.114},
      {"variant": "U7G G51C", "self-cleavage": 0.908},
      {"variant": "U7G G42A", "self-cleavage": 0.218},
      {"variant": "U8C C12G", "self-cleavage": 0.229},
      {"variant": "U8A U70A", "self-cleavage": 0.665},
      {"variant": "U7G C66G", "self-cleavage": 0.0969}
    ]}
  ]
}
